B1: 22115 (protein)
chain: MALPVTALLLPLALLLHAARPQVQLVESGGGLVQPGGSLRLSCAASGFTFTNHAMSWVRQAPGKGLELVSSISGNGRTTYYADSVKGRFTISRDISKNTLDLQMNSLRAEDTAVYYCAKDGGETLVDSRGQGTLVTVSSLEDLKNVFPPEVAVFEPSKAEIAHTQKATLVCLATGFYPDHVELSWWVNGKEVHSGVCTDPQPLKEQPALNDSRYCLSSRLRVSATFWQNPRNHFRCQVQFYGLSENDEWTQDRAKPVTQIVSAEAWGRADCGITSASYHQGVLSATILYEILLGKATLYAVLVSALVLMAMVKRKDSRGRAKRSGSGATNFSLLKQAGDVEENPGPTSTMALPVTALLLPLALLLHAARPQVQLVESGGGLVQPGGSLRLSCAASGFTFTNHAMSWVRQAPGKGLELVSSISGNGRTTYYADSVKGRFTISRDISKNTLDLQMNSLRAEDTAVYYCAKDGGETLVDSRGQGTLVTVSSLESGGGGSFEQVQLQQPGAELVKPGASVKMSCKASGYAFSSYWINWMKQKPGQGLEWIGQIYPGDGDTNYNGKFKGRATLTADTSSSTAYMQLSSLTSEDSAVYFCARSITTVVGCAMDYWGQGTSVTVSSTRIQNPDPAVYQLRDSKSSDKSVCLFTDFDSQTNVSQSKDSDVYITDKCVLDMRSMDFKSNSAVAWSNKSDFACANAFNNSIIPEDTFFPSSDVPCDVKLVEKSFETDTNLNFQNLSVIGFRILLLKVAGFNLLMTLRLWSSRAKRSGSGVKQTLNFDLLKLAGDVESNPGPSRGHMTEYKPTVRLATRDDVPRAVRTLAAAFADYPATRHTVDPDRHIERVTELQELFLTRVGLDIGKVWVADDGAAVAVWTTPESVEAGAVFAEIGPRMAELSGSRLAAQQQMEGLLAPHRPKEPAWFLATVGVSPDHQGKGLGSAVVLPGVEAAERAGVPAFLETSAPRNLPFYERLGFTVTADVEVPEGPRTWCMTRKPGA
B2: 22139 (protein)
chain: MALPVTALLLPLALLLHAARPACEVQLLESGGGLIQPGGSLRLSCAASGFTFSSHAMTWVRQAPGKGLEWVSAISGSGDYTHYADSVKGRFTISRDNSKNTVYLQMNSLRAEDSAVYYCAKDEDGGSLLGHRGQGTLVTVSSGTGGGGSGGGGSGGGGSEFDIQMTQSPSSLSASVGDRVTITCKASDHINNWLAWYQQKPGQAPKLLIYGATTLETGVPSRFSGSGSGTDYTLTISSLQPEDFATYYCQQSWNTPWTFGQGTKLEIKRLEADVSPKPTIFLPSIAETKLQKAGTYLCLLEKFFPDVIKIHWQEKKSNTILGSQEGNTMKTNDTYMKFSWLTVPEKSLDKEHRCIVRHENNKNGVDQEIIFPPIKTDVITMDPKDNCSKDANDTLLLQLTNTSAYYMYLLLLLKSVVYFAIITCCLLRRTAFCCNGEKSRAKRSGSGATNFSLLKQAGDVEENPGPTSMDWIWRILFLVGAATGAHSGPQVQLQESGGGLAQAGGSLRLSCAASGRTFSMGWFRQAPGKEREFVAAITYSGGSPYYASSVRGRFTISRDNAKNTVYLQMNSLKPEDTAVYYCAANPTYGSDWNAENWGQGTQVTVSSGSGGGGSGGGGSGGGGSFEQVQLQQPGAELVKPGASVKMSCKASGYAFSSYWINWMKQKPGQGLEWIGQIYPGDGDTNYNGKFKGRATLTADTSSSTAYMQLSSLTSEDSAVYFCARSITTVVGCAMDYWGQGTSVTVSSTRPHTKPSVFVMKNGTNVACLVKEFYPKDIRINLVSSKKITEFDPAIVISPSGKYNAVKLGKYEDSNSVTCSVQHDNKTVHSTDFEVKTDSTDHVKPKETENTKQPSKSCHKPKAIVHTEKVNMMSLTVLGLRMLFAKTVAVNFLLTAKLFFLRAKRSGSGVKQTLNFDLLKLAGDVESNPGPSRGHMTEYKPTVRLATRDDVPRAVRTLAAAFADYPATRHTVDPDRHIERVTELQELFLTRVGLDIGKVWVADDGAAVAVWTTPESVEAGAVFAEIGPRMAELSGSRLAAQQQMEGLLAPHRPKEPAWFLATVGVSPDHQGKGLGSAVVLPGVEAAERAGVPAFLETSAPRNLPFYERLGFTVTADVEVPEGPRTWCMTRKPGA
B3: 22105 (protein)
chain: MALPVTALLLPLALLLHAARPDIQMTQSPSSLSASVGDRVTITCKASDHINNWLAWYQQKPGQAPKLLIYGATTLETGVPSRFSGSGSGTDYTLTISSLQPEDFATYYCQQSWNTPWTFGQGTKLEIKRLEDLKNVFPPEVAVFEPSEAEISHTQKATLVCLATGFYPDHVELSWWVNGKEVHSGVCTDPQPLKEQPALNDSRYCLSSRLRVSATFWQNPRNHFRCQVQFYGLSENDEWTQDRAKPVTQIVSAEAWGRADCGFTSESYQQGVLSATILYEILLGKATLYAVLVSALVLMAMVKRKDSRGRAKRSGSGATNFSLLKQAGDVEENPGPTSATMDWIWRILFLVGAATGAHSGPQVQLQESGGGLAQAGGSLRLSCAASGRTFSMGWFRQAPGKEREFVAAITYSGGSPYYASSVRGRFTISRDNAKNTVYLQMNSLKPEDTAVYYCAANPTYGSDWNAENWGQGTQVTVSSGSGGGGSGGGGSGGGGSFEQVQLQQPGAELVKPGASVKMSCKASGYAFSSYWINWMKQKPGQGLEWIGQIYPGDGDTNYNGKFKGRATLTADTSSSTAYMQLSSLTSEDSAVYFCARSITTVVGCAMDYWGQGTSVTVSSTRIQNPDPAVYQLRDSKSSDKSVCLFTDFDSQTNVSQSKDSDVYITDKCVLDMRSMDFKSNSAVAWSNKSDFACANAFNNSIIPEDTFFPSPESSCDVKLVEKSFETDTNLNFQNLSVIGFRILLLKVAGFNLLMTLRLWSSRAKRSGSGVKQTLNFDLLKLAGDVESNPGPSRGHMTEYKPTVRLATRDDVPRAVRTLAAAFADYPATRHTVDPDRHIERVTELQELFLTRVGLDIGKVWVADDGAAVAVWTTPESVEAGAVFAEIGPRMAELSGSRLAAQQQMEGLLAPHRPKEPAWFLATVGVSPDHQGKGLGSAVVLPGVEAAERAGVPAFLETSAPRNLPFYERLGFTVTADVEVPEGPRTWCMTRKPGA
B4: 22161 (protein)
chain: MALPVTALLLPLALLLHAARPACEVQLLESGGGLIQPGGSLRLSCAASGFTFSSHAMTWVRQAPGKGLEWVSAISGSGDYTHYADSVKGRFTISRDNSKNTVYLQMNSLRAEDSAVYYCAKDEDGGSLLGHRGQGTLVTVSSGTGGGGSGGGGSGGGGSEFDIQMTQSPSSLSASVGDRVTITCKASDHINNWLAWYQQKPGQAPKLLIYGATTLETGVPSRFSGSGSGTDYTLTISSLQPEDFATYYCQQSWNTPWTFGQGTKLEIKRLEDLKNVFPPEVAVFEPSEAEISHTQKATLVCLATGFYPDHVELSWWVNGKEVHSGVCTDPQPLKEQPALNDSRYCLSSRLRVSATFWQNPRNHFRCQVQFYGLSENDEWTQDRAKPVTQIVSAEAWGRADCGFTSESYQQGVLSATILYEILLGKATLYAVLVSALVLMAMVKRKDSRGRAKRSGSGATNFSLLKQAGDVEENPGPTSATMDWIWRILFLVGAATGAHSGPEVQLVESGGGLVQAGGSLRLSCAASGRTFSMGWFRQAPGKEREFVAAITYSGGSPYYADSVKGRFTISRDNAKNTVYLQMNSLKPEDTAVYYCAANPTYGSDWNAENWGQGTQVTVSSGSGGGGSGGGGSGGGGSFEQVQLQQPGAELVKPGASVKMSCKASGYAFSSYWINWMKQKPGQGLEWIGQIYPGDGDTNYNGKFKGRATLTADTSSSTAYMQLSSLTSEDSAVYFCARSITTVVGCAMDYWGQGTSVTVSSTRIQNPDPAVYQLRDSKSSDKSVCLFTDFDSQTNVSQSKDSDVYITDKCVLDMRSMDFKSNSAVAWSNKSDFACANAFNNSIIPEDTFFPSPESSCDVKLVEKSFETDTNLNFQNLSVIGFRILLLKVAGFNLLMTLRLWSSRAKRSGSGVKQTLNFDLLKLAGDVESNPGPSRGHMTEYKPTVRLATRDDVPRAVRTLAAAFADYPATRHTVDPDRHIERVTELQELFLTRVGLDIGKVWVADDGAAVAVWTTPESVEAGAVFAEIGPRMAELSGSRLAAQQQMEGLLAPHRPKEPAWFLATVGVSPDHQGKGLGSAVVLPGVEAAERAGVPAFLETSAPRNLPFYERLGFTVTADVEVPEGPRTWCMTRKPGA

What was measured:
Format in all cases: cell-based
RS;411 = assay: JNG assay, co-culture with RS;411 cells; settings: co-culture with RS411
Protocol: Cellular supernatant is collected and assayed for the induction of cytokines (e.g., IL2).
JNG (Jurkat cells expressing EGFP under an NFAT promoter) were infected with lentiviral vectors encoding different single chain and multi-chain SARs by spinfection in the presence of 8 µg/ml of Polybrene® (Sigma, Catalog no. H9268). The Jurkat-NFAT-GFP cells are engineered in such a way that the IL-2 promoter, which carries NFAT binding sites, is cloned upstream of the GFP gene. These cells have been used to study signaling via TCR and CAR. The different SARs were stably expressed in Jurkat NFAT-GFP cells by lentiviral mediated gene transfer, followed by selection with puromycin or blasticidin. No drug selection was used in case the construct lacked an antibiotic resistance gene. The SAR-expressing Jurkat-NFAT-GFP cells were cocultured with the target cells at E:T ratio of approximately 1:2 for approximately 4 hours to 18 hours. When the interaction between SIRs and their target antigen results in activation of the NFAT pathway, GFP expression is induced. […] GFP expression was monitored by FACS analysis. The Jurkat-NFAT-GFP (parental) cells were used as control. The structure of different constructs can be determined based on their names. […] The sequence of the other constructs in the table can be similarly determined from their names and by referring to the different Tables of this disclosure that provide the names and SEQ ID NO of the different modules. Alternatively, the composition and modular architecture of the different SAR constructs can be determined from their sequences by bioinformatics tools, including using nucleic acid and amino acids homology searches. A SAR is considered positive in the assay in case the SAR expressing Jurkat-NFAT-GFP cells show greater % GFP positive cells when cultured with the target cell line as compared to parental Jurkat-NFAT-GFP cells. […] In general, the number +/-, +, 2+, 3+, 4+, 5+ refer to approximately 5%, 10%, 20%, 30%, 40% and 50% GFP positive cells. The % of GFP induction in the above assay is dependent not only the relative strength of the SAR but also, among other factors, on the relative level of expression of the SAR in the JNG cells and the relative level of expression of the target antigen in the target cell line. To control for the difference in gene transduction efficiency of the different SAR constructs, the experiment was conducted with JNG cells transduced with SAR constructs co-expressing a drug resistance gene (e.g., puromycin or PAC) followed by drug selection to generate a stable population of SAR-expressing cells. It is to be noted that the drug resistance gene (e.g., PAC) in the SAR constructs is optional and in vivo studies were conducted with SAR constructs lacking the PAC gene.

RAJI cells = assay: JNG assay, co-culture with RAJI cells; settings: JNG cells expressing construct, co-culture with Raji
Method in brief: (§1)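 Jurkat-NFAT-GFP (JNG) cells stably expressing SAR constructs via lentiviral transduction and puromycin/blasticidin selection were cocultured with target cells at E:T ~1:2 for ~4–18 h. NFAT-driven GFP was measured by FACS versus parental JNG cells; scores +/- to 5+ denote ~5–50% GFP-positive cells.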

Nalm6 cells = assay: JNG assay, co-culture with Nalm6 cells; settings: co-culture with Nalm6
Method in brief: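 Scoring uses % GFP+ reporter cells above the parental control, where +/-, +, 2+, 3+, 4+ and 5+ correspond to about 5, 10, 20, 30, 40 and 50%. Effectors were SAR-expressing Jurkat NFAT-GFP cells cocultured with targets (E:T ~1:2, ~4–18 h).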

RAJI-CD19-KO cells = assay: JNG assay, co-culture with RAJI-CD19-KO cells; settings: co-culture with Raji-CD19-KO
Method in brief: as §1

Molecule | NFAT-GFP ASSAY: RS411 (RS;411) | NFAT-GFP ASSAY: Raji (RAJI cells) | NFAT-GFP ASSAY: Nalm6 (Nalm6 cells) | NFAT-GFP ASSAY: Raji-CD19-KO (RAJI-CD19-KO cells)
B1 | 2+ (refer to approximately 5%, 10%, 20%, 30%, 40% and 50% GFP positive cells) | – | – | –
B2 | 2+ (refer to approximately 5%, 10%, 20%, 30%, 40% and 50% GFP positive cells) | 2+ (refer to approximately 5%, 10%, 20%, 30%, 40% and 50% GFP positive cells) | – | –
B3 | – | – | 5+ (refer to approximately 5%, 10%, 20%, 30%, 40% and 50% GFP positive cells) | 4+ (refer to approximately 5%, 10%, 20%, 30%, 40% and 50% GFP positive cells)
B4 | – | +/- (refer to approximately 5%, 10%, 20%, 30%, 40% and 50% GFP positive cells) | +/- (refer to approximately 5%, 10%, 20%, 30%, 40% and 50% GFP positive cells) | +/- (refer to approximately 5%, 10%, 20%, 30%, 40% and 50% GFP positive cells)

Source: patent US20230212319A1, “NOVEL ANTIGEN BINDING DOMAINS AND SYNTHETIC ANTIGEN RECEPTORS INCORPORATING THE SAME” (University of Southern California, priority 2020, published 2023)
